For three molecules, EC50 results are on record in publication PMC4890538 (Angewandte Chemie (International ed. in English), 2015).

The target in assay [1] is L1R, vaccinia virus L1R myristyl protein (vaccinia virus, UniProt P07612 1-250).
Assay [2] concerns the target T1, IL17-F (Interleukin member of the highly homologous IL-17 family) (UniProt Q96PD4 31-163).
T1 sequence (looked up): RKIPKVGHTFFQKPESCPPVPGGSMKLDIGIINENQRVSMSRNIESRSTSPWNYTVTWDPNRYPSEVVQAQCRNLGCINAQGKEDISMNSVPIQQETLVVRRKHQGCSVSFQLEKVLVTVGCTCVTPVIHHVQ

In assay [3] the target is p-Akt2 (phospho serine / threonine kinase) (UniProt P31751 1-481).

B1: Cy(DARNI-click) (peptide)
peptide: DARNI
B1 showed a concentration giving a half-maximal response (EC50) in assay [1] of 875 nM.

B2: Cy(RRATS-click) (peptide)
peptide: RRATS
B2 showed an EC50 in assay [2] of 66 nM.

B3: Cy(YYTYT-click) (peptide)
peptide: YYTYT
B3 came in with an EC50 in assay [3] of 122 nM.

A word on the EC50: it is the concentration needed to bring the measured effect to its halfway point. Read a high EC50 as weaker potency.
